Test results reported in the supplement of paper PMC7125110.
± gives the standard error. For some assays here: This sample holds only a part of the variants without activity.

B1: glmS ribozyme (parent)
chain: AUAAAAGCGCCAGAACUACAGAAAUGUAGUUGACGAGGAGGAGGUUUAUCGAAUUUUCGGCGGAUGCCUCCAAA

Experiments:
Conditions in all cases: with glucosamine-6-phosphate
glucosamine-6-phosphate [1] = variants of: B1; experiment: kcat; higher = faster cleavage; RNA array
Summary of the method: (§1)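 Using a hybridised Cy3 probe at 37 °C, barcoded ribozyme variants transcribed in situ by E. coli RNA polymerase on sequenced MiSeq chips were monitored across tiles imaged over ~14 h. The flow contained glucosamine-6-phosphate from 40 μM to 10 mM in HEPES/KCl/Mg(OAc)2 buffer. Signals were normalised to baseline and to non-cleaving reference variants before per-tile medians were fit to one- or two-exponential decays to yield kobs. Weighted Michaelis–Menten fits across concentrations gave kcat and KM.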

glucosamine-6-phosphate [2] = variants of: B1; experiment: KM; higher = weaker cofactor use; RNA array
Summary of the method: as §1

glucosamine-6-phosphate [3] = variants of: B1; experiment: self-cleavage kobs at 40 uM GlcN6P; higher = faster cleavage; RNA array
Summary of the method: as §1

glucosamine-6-phosphate [4] = variants of: B1; experiment: self-cleavage kobs at 160 uM GlcN6P; higher = faster cleavage; RNA array
Summary of the method: as §1

glucosamine-6-phosphate [5] = variants of: B1; experiment: self-cleavage kobs at 640 uM GlcN6P; higher = faster cleavage; RNA array
Summary of the method: as §1

glucosamine-6-phosphate [6] = variants of: B1; experiment: self-cleavage kobs at 2500 uM GlcN6P; higher = faster cleavage; RNA array
Summary of the method: as §1

glucosamine-6-phosphate [7] = variants of: B1; experiment: self-cleavage kobs at 10000 uM GlcN6P; higher = faster cleavage; RNA array
Summary of the method: as §1

Row | Variant | kcat (glucosamine-6-phosphate [1]) | KM (glucosamine-6-phosphate [2]) | self-cleavage kobs at 40 uM GlcN6P (glucosamine-6-phosphate [3]) | self-cleavage kobs at 160 uM GlcN6P (glucosamine-6-phosphate [4]) | self-cleavage kobs at 640 uM GlcN6P (glucosamine-6-phosphate [5]) | self-cleavage kobs at 2500 uM GlcN6P (glucosamine-6-phosphate [6]) | self-cleavage kobs at 10000 uM GlcN6P (glucosamine-6-phosphate [7])
1 | G37A U54C | 0.00259 ± 0.00054 s⁻¹ | 3.19 ± 0.91 mM | 4.82e-05 ± 1.6e-05 s⁻¹ | 0.000124 ± 2.7e-05 s⁻¹ | 0.000375 ± 8.4e-05 s⁻¹ | 0.00127 ± 0.00026 s⁻¹ | 0.00192 ± 0.00042 s⁻¹
2 | C16U C70G | 0.000316 ± 9.7e-05 s⁻¹ | – | 4.19e-05 ± 6.7e-06 s⁻¹ | 9.18e-05 ± 8.2e-06 s⁻¹ | 0.000186 ± 1.6e-05 s⁻¹ | 0.000619 ± 0.00016 s⁻¹ | 0.000497 ± 0.00011 s⁻¹
3 | A12G A15U | 0.000449 ± 5.3e-05 s⁻¹ | 5.85 ± 1.1 mM | – | – | 4.86e-05 ± 6.8e-06 s⁻¹ | 0.000123 ± 1.6e-05 s⁻¹ | 0.000288 ± 2.6e-05 s⁻¹
4 | A14C A33U C50U C70A | 3.25e-05 ± 1.4e-05 s⁻¹ | – | – | – | 4.2e-05 ± 1.9e-05 s⁻¹ | – | –
5 | G32U U47G | 0.000502 ± 8.1e-05 s⁻¹ | 4.7 ± 1.4 mM | – | – | 5.12e-05 ± 1.7e-05 s⁻¹ | 0.000189 ± 3.3e-05 s⁻¹ | 0.000336 ± 4.6e-05 s⁻¹
6 | U54G G60U | < 1e-05 s⁻¹ | – | – | – | – | – | –
7 | U56C G66U | 0.000242 ± 4e-05 s⁻¹ | 1.5 ± 0.65 mM | – | – | 8.87e-05 ± 2e-05 s⁻¹ | 0.000133 ± 2e-05 s⁻¹ | 0.000231 ± 3.4e-05 s⁻¹
8 | A53G C71A | 0.00448 ± 0.002 s⁻¹ | – | 0.000374 ± 4.3e-05 s⁻¹ | 0.00085 ± 0.00013 s⁻¹ | 0.00169 ± 0.00037 s⁻¹ | 0.00297 ± 0.0007 s⁻¹ | 0.00857 ± 0.0012 s⁻¹
9 | C16G A48U | 0.000805 ± 0.0004 s⁻¹ | – | < 1e-05 s⁻¹ | < 1e-05 s⁻¹ | – | – | 4.45e-05 ± 9.8e-06 s⁻¹
10 | U46G C70G | 0.00028 ± 2.1e-05 s⁻¹ | 0.192 ± 0.044 mM | 4.54e-05 ± 1.1e-05 s⁻¹ | 0.000122 ± 1.7e-05 s⁻¹ | 0.000265 ± 3.3e-05 s⁻¹ | 0.000263 ± 3.4e-05 s⁻¹ | 0.000258 ± 2.6e-05 s⁻¹
11 | G32A G40U | 0.00051 ± 0.0001 s⁻¹ | 3.9 ± 1.2 mM | – | – | 7.8e-05 ± 9.2e-06 s⁻¹ | 0.000169 ± 2.5e-05 s⁻¹ | 0.000401 ± 5.6e-05 s⁻¹
12 | A15U A42G | 0.00684 ± 0.0019 s⁻¹ | 1.5 ± 0.57 mM | 0.000222 ± 3.2e-05 s⁻¹ | 0.000542 ± 0.00018 s⁻¹ | 0.00165 ± 0.00033 s⁻¹ | 0.0039 ± 0.0016 s⁻¹ | 0.00687 ± 0.0013 s⁻¹
13 | A14C G41A | 0.000497 ± 9e-05 s⁻¹ | 3.49 ± 1 mM | – | 3.59e-05 ± 1.5e-05 s⁻¹ | 6.95e-05 ± 1.3e-05 s⁻¹ | 0.000234 ± 4.5e-05 s⁻¹ | 0.000358 ± 6.2e-05 s⁻¹
14 | G29U U31C | 0.000449 ± 0.00016 s⁻¹ | – | – | 4.01e-05 ± 1.3e-05 s⁻¹ | 9.18e-05 ± 8.9e-06 s⁻¹ | 0.00015 ± 1.8e-05 s⁻¹ | 0.000407 ± 3.7e-05 s⁻¹
